From doi:10.1101/2022.11.21.516512

Target: CTD-HAP40 complex bearing a C-terminal biotin tag (UniProt P23610)
Assay: BLI

Chain of UniProt P23610 (P23610 whole entry, looked up, one chain of several): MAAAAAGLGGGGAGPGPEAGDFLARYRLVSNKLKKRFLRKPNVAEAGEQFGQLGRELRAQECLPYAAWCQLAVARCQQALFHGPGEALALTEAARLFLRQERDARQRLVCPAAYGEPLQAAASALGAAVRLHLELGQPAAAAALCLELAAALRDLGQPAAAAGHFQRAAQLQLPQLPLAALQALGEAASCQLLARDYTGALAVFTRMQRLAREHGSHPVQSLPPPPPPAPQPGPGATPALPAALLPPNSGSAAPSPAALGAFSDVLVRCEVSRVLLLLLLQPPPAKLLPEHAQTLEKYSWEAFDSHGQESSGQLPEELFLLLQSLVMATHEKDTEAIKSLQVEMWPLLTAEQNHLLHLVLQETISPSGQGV

Substance: HTT N-terminal HEAT and bridge domain construct (NTD, aa. 97-2069) (domain or fragment)
- Kd: 10 nM
